According to paper PMC9870916, “The mitochondrial inhibitor IF1 binds to the ATP synthase OSCP subunit and protects cancer cells from apoptosis” (Cell Death & Disease, 2023):

Target: T1, OSCP-NT (R6-G114) (human, UniProt P48047 29-137)
T1 construct: Used unlabelled (added in excess) or 15N-labelled (observed); cleavage leaves no additional residues; also called N-terminal domain of OSCP; source: E. coli BL21(DE3), purified (Ni-HisTrap, Ulp1 cleavage, cation exchange, Superdex 75); not shown: His6-SUMO, N-terminal, cleaved
T1 sequence (looked up): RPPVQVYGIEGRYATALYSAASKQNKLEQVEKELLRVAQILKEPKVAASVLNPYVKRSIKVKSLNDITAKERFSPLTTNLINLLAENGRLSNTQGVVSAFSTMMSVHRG
Experiment: NMR titration; 1H-15N SOFAST-HMQC of 15N-labelled IF1-NT without and with 15-fold molar excess of unlabelled OSCP-NT or OSCP-CT; for OSCP-NT: 30 μM IF1-NT, 450 μM OSCP-NT, 50 mM phosphate, 300 mM NaCl, pH 7.0, 7 °C
Settings: both partners purified

binding result: binds
B1: IF1-NT (G1-E40) (domain or fragment, human, UniProt Q9UII2 26-65, looked up)
chain: GSDQSENVDRGAGSIREAGGAFGKREQAEEERYFRAQSRE
notes: Used 15N-labelled (observed) or unlabelled (added in excess); cleavage leaves no additional residues; also called IF1-1NT; N-terminal domain of IF1; source: E. coli BL21(DE3), purified (Ni-HisTrap, Ulp1 cleavage, second Ni-HisTrap, Superdex 75); not shown: His6-SUMO, N-terminal, cleaved
